Assay results published in publication PMC12159506.

B1: SmBiT-C-CaSR-WT [not stated] / LgBiT-N-AP2σ-WT [not stated] (parent)
chain 1: not shown
chain 2: YGPDQRAQKKGDIILGGLFPIHFGVAAKDQDLKSRPESVECIRYNFRGFRWLQAMIFAIEEINSSPALLPNLTLGYRIFDTCNTVSKALEATLSFVAQNKIDSLNLDEFCNCSEHIPSTIAVVGATGSGVSTAVANLLGLFYIPQVSYASSSRLLSNKNQFKSFLRTIPNDEHQATAMADIIEYFRWNWVGTIAADDDYGRPGIEKFREEAEERDICIDFSELISQYSDEEEIQHVVEVIQNSTAKVIVVFSSGPDLEPLIKEIVRRNITGKIWLASEAWASSSLIAMPQYFHVVGGTIGFALKAGQIPGFREFLKKVHPRKSVHNGFAKEFWEETFNCHLQEGAKGPLPVDTFLRGHEESGDRFSNSSTAFRPLCTGDENISSVETPYIDYTHLRISYNVYLAVYSIAHALQDIYTCLPGRGLFTNGSCADIKKVEAWQVLKHLRHLNFTNNMGEQVTFDECGDLVGNYSIINWHLSPEDGSIVFKEVGYYNVYAKKGERLFINEEKILWSGFSREVPFSNCSRDCLAGTRKGIIEGEPTCCFECVECPDGEYSDETDASACNKCPDDFWSNENHTSCIAKEIEFLSWTEPFGIALTLFAVLGIFLTAFVLGVFIKFRNTPIVKATNRELSYLLLFSLLCCFSSSLFFIGEPQDWTCRLRQPAFGISFVLCISCILVKTNRVLLVFEAKIPTSFHRKWWGLNLQFLLVFLCTFMQIVICVIWLYTAPPSSYRNQELEDEIIFITCHEGSLMALGFLIGYTCLLAAICFFFAFKSRKLPENFNEAKFITFSMLIFFIVWISFIPAYASTYGKFVSAVEVIAILAASFGLLACIFFNKIYIILFKPSRNTIEEVRCSTAAHAFKVAARATLRRSNVSRKRSSSLGGSTGSTPSSSISSKSNSEDPFPQPERQKQQQPLALTQQEQQQQPLTLPQQQRSQQQPRCKQKVIFGSGTVTFSLSFDEPQKNAMAHRNSTHQNSLEAQKSSDTLTRHEPLLPLQCGETDLDLTVQETGLQGPVGGDQRPEVEDPEELSPALVVSSSQSFVISGGGSTVTENVVNS

Variants of: B1
Assay: NanoBiT split-luciferase
Conditions: with LgBiT-N-AP2σ-WT; N = 7; read off a plot

Row | response | Variant
1 | 4.7 | chain 2 T989A
2 | 4.9 | chain 2 T987A
3 | 4.9 | chain 2 S985A
4 | 2.4 | chain 2 L994A L995A
5 | 4.8 | chain 2 S959A

Same assay, conditions: with LgBiT-N-AP2σ-WT; N = 10; read off a plot

Row | response | Variant
6 | 3 | chain 2 H991A
7 | 4.5 | chain 2 P993A
8 | 2.1 | chain 2 L994A L995A
9 | 3.8 | chain 2 R990A

Same assay, conditions: with LgBiT-N-AP2σ-WT; N = 6; read off a plot

Row | response | Variant
10 | 3.6 | chain 2 R990A H991A E992A P993A L994A L995A
11 | 3.2 | chain 2 L994A L995A
